B1: PIH1 domain-containing protein 2 (Homo sapiens), Q8WWB5 (parent)
chain: METSSKGLLTQVTQFWNLLDDLAQSDPEGYEKFIQQQLKEGKQLCAAPEPQLCLQTRILKPKEKILFINLCQWTRIPAPQSTTHPVPLTVGKPEDTTEISDAYTVIDVAYNPDVLHAAEKDQVKKNQLIQMAMKCIEEKFQFTLSHSYHITKFRIKGSIQRMKQNLMGIQTDSIDLREKMRRELTLGQIRSSTMSNPDHFPQLLLPKDQVSGKAVCLIEEISSTEIQVEMKMPAYELKIVHDHSEKPLKIELKVELPGINSVSLCDLSVSEDDLLIEVSEKYRLHLNLPKLIDTEMTTAKFIKEKSTLIITMPLV
partner: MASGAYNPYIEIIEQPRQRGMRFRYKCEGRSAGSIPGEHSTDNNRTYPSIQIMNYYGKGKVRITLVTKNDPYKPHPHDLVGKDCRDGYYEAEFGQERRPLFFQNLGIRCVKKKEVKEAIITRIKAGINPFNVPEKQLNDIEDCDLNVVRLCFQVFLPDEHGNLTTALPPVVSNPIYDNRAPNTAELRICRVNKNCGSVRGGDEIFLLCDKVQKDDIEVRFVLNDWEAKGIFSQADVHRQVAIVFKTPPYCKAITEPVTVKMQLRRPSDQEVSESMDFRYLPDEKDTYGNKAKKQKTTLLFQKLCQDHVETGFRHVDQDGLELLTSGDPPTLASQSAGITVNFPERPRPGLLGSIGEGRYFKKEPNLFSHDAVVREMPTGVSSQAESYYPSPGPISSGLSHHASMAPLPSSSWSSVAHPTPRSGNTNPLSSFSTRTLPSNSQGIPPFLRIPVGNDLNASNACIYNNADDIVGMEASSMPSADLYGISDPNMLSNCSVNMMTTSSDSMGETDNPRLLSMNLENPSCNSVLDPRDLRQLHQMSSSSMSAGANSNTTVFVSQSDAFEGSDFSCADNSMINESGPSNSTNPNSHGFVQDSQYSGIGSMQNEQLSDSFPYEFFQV
B2: Zinc finger protein with KRAB and SCAN domains 4 (Homo sapiens), Q969J2 (parent)
chain: MAREPRKNAALDAQSAEDQTGLLTVKVEKEEASALTAEVRAPCSPARGPERSRQRFRGFRYPEAAGPREALSRLRELCGQWLQPEMHSKEQILELLVLEQFLTILPGNLQSWVREQHPESGEEVVVLLEYLERQLDEPAPQVPVGDQGQELLCCKMALLTQTQGSQSSQCQPMKALFKHESLGSQPLHDRVLQVPGLAQGGCCREDAMVASRLTPGSQGLLKMEDVALTLTPGWTQLDSSQVNLYRDEKQENHSSLVSLGGEIQTKSRDLPPVKKLPEKEHGKICHLREDIAQIPTHAEAGEQEGRLQRKQKNAIGSRRHYCHECGKSFAQSSGLTKHRRIHTGEKPYECEDCGKTFIGSSALVIHQRVHTGEKPYECEECGKVFSHSSNLIKHQRTHTGEKPYECDDCGKTFSQSCSLLEHHKIHTGEKPYQCNMCGKAFRRNSHLLRHQRIHGDKNVQNPEHGESWESQGRTESQWENTEAPVSYKCNECERSFTRNRSLIEHQKIHTGEKPYQCDTCGKGFTRTSYLVQHQRSHVGKKTLSQ
B3: Uncharacterized protein C3orf62 (Homo sapiens), Q6ZUJ4 (parent)
chain: MHYIKTWSLLGEMSEKLRRCRKELTAAIDRAFEGVSYSQECTGQQRLELSAAPLSFSLPVHRLLCRRHPLAACSSAAPFAAVPCAPENENPAFATNHAPVNAKPHALCPERKPLTSKENVLMHSSILAPERESWRTAGEGENWRKENLRKDMERDLKADSNMPLNNSSQEVTKDLLDMIDHTSIRTIEELAGKIEFENELNHMCGHCQDSPFKEEAWALLMDKSPQKATDADPGSLKQAFDDHNIVETVLDLEEDYNVMTSFKYQIE
B4: PHD finger protein 1 (Homo sapiens), O43189 (parent)
chain: MAQPPRLSRSGASSLWDPASPAPTSGPRPRLWEGQDVLARWTDGLLYLGTIKKVDSAREVCLVQFEDDSQFLVLWKDISPAALPGEELLCCVCRSETVVPGNRLVSCEKCRHAYHQDCHVPRAPAPGEGEGTSWVCRQCVFAIATKRGGALKKGPYARAMLGMKLSLPYGLKGLDWDAGHLSNRQQSYCYCGGPGEWNLKMLQCRSCLQWFHEACTQCLSKPLLYGDRFYEFECCVCRGGPEKVRRLQLRWVDVAHLVLYHLSVCCKKKYFDFDREILPFTSENWDSLLLGELSDTPKGERSSRLLSALNSHKDRFISGREIKKRKCLFGLHARMPPPVEPPTGDGALTSFPSGQGPGGGVSRPLGKRRRPEPEPLRRRQKGKVEELGPPSAVRNQPEPQEQRERAHLQRALQASVSPPSPSPNQSYQGSSGYNFRPTDARCLPSSPIRMFASFHPSASTAGTSGDSGPPDRSPLELHIGFPTDIPKSAPHSMTASSSSVSSPSPGLPRRSAPPSPLCRSLSPGTGGGVRGGVGYLSRGDPVRVLARRVRPDGSVQYLVEWGGGGIF
B5: Break repair meiotic recombinase recruitment factor 1 (Homo sapiens), Q0VDD7 (parent)
chain: MTKRKKLRTSGEGLCPPKPLKNPRLGDFYGDPQSSMLGCLHHPEEPEGKLGPVPSTQQHGEEPGKAVSSSPDEETGSPCRLLRQPEKEPAPLPPSQNSFGRFVPQFAKSRKTVTRKEEMKDEDRGSGAFSLETIAESSAQSPGCQLLVETLGVPLQEATELGDPTQADSARPEQSSQSPVQAVPGSGDSQPDDPPDRGTGLSASQRASQDHLSEQGADDSKPETDRVPGDGGQKEHLPSIDSEGEKPDRGAPQEGGAQRTAGAGLPGGPQEEGDGVPCTPASAPTSGPAPGLGPASWCLEPGSVAQGSPDPQQTPSRMGREGEGTHSSLGCSSLGMVVIADLSTDPTELEERALEVAGPDGQASAISPASPRRKAADGGHRRALPGCTSLTGETTGESGEAGQDGKPPGDVLVGPTASLALAPGSGESMMGAGDSGHASPDTGPCVNQKQEPGPAQEEAELGGQNLERDLEGFRVSPQASVVLEHREIADDPLQEPGAQQGIPDTTSELAGQRDHLPHSADQGTWADSLAVELDFLLDSQIQDALDASDFEAPPEQLFPSGNKPGPCWPGPSSHANGDPVAVAKAQPRTFVGIQASEASRMEDATNVVRGLIVELSNLNRLIMGTHRDLEAFKRLNYRKTKLGGKAPLPYPSKGPGNIPRGDPPWREL
partner: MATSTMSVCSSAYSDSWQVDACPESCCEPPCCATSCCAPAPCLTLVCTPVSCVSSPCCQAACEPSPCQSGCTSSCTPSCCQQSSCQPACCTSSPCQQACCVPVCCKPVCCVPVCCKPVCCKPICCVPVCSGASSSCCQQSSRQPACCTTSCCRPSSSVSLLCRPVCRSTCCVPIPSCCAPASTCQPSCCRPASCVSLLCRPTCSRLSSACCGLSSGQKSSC

Experimental findings from IntAct's records for PubMed 31515488 are described below.

The variants in the first assay derive from B1. The note with it: with rel_human REL.
On to A102D, for which the “effect of a mutation on the interaction” value is reported as “with no effect”. A117V: the “effect of a mutation on the interaction” value was “with no effect”.

The next assay covers variants of B2. Particulars: with zsc32_human ZSCAN32, Q9NX65.
zsc32_human ZSCAN32, Q9NX65, sequence (Q9NX65 whole entry): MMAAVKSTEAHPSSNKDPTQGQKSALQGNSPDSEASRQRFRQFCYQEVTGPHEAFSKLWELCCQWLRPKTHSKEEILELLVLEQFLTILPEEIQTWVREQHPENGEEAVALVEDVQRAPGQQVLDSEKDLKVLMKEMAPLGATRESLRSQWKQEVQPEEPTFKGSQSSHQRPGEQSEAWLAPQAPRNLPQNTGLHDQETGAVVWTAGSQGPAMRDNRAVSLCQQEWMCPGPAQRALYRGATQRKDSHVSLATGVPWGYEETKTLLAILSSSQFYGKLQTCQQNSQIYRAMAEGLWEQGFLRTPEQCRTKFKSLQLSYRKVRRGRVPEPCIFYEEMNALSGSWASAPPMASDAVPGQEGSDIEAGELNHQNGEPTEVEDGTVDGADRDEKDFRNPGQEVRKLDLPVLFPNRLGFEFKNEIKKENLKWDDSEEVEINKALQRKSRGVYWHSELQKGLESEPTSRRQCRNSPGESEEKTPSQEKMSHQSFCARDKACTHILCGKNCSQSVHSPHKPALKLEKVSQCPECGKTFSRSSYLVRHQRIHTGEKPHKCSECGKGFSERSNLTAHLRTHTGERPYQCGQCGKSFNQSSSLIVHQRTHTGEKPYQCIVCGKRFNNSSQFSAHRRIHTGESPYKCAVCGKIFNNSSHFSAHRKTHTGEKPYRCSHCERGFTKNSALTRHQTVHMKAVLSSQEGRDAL
As for L22F, the “effect of a mutation on the interaction” value is “with no effect”.

For the variant S33F, the “effect of a mutation on the interaction” value is on record as “with no effect”. Take G79R: the “effect of a mutation on the interaction” value is “with no effect”.

Variants of B2 are the subject of a further assay. The note with it: with zksc7_human ZKSCAN7, Q9P0L1.
zksc7_human ZKSCAN7, Q9P0L1, sequence (Q9P0L1 whole entry): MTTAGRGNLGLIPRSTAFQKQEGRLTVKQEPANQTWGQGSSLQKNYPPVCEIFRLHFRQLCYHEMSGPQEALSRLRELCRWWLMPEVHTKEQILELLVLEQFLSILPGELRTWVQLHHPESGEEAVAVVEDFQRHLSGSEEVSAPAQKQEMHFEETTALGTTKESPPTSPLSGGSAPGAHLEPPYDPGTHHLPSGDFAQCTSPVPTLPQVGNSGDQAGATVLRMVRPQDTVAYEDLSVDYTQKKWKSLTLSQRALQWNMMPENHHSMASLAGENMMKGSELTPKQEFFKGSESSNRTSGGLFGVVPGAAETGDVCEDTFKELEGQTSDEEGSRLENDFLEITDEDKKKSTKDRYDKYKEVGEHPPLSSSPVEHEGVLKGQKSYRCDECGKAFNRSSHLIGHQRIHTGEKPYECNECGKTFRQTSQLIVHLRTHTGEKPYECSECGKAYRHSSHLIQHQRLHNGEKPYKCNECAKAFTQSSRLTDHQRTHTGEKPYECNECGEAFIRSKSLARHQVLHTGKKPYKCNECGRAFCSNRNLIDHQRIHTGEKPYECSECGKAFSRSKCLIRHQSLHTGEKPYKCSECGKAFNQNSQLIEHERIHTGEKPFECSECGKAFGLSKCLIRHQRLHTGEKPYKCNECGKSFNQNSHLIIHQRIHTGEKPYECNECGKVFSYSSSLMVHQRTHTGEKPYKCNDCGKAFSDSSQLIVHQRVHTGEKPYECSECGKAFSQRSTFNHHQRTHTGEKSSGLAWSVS
As for L22F, the “effect of a mutation on the interaction” value is given as “with no effect”. The same measure, in the same setting: the result for S33F reads “with no effect”.

Consider G79R, for which the “effect of a mutation on the interaction” value is “with no effect”.

The variants in a further assay derive from B2. Particulars: with znf24_human ZNF24, P17028.
znf24_human ZNF24, P17028, sequence (P17028 whole entry): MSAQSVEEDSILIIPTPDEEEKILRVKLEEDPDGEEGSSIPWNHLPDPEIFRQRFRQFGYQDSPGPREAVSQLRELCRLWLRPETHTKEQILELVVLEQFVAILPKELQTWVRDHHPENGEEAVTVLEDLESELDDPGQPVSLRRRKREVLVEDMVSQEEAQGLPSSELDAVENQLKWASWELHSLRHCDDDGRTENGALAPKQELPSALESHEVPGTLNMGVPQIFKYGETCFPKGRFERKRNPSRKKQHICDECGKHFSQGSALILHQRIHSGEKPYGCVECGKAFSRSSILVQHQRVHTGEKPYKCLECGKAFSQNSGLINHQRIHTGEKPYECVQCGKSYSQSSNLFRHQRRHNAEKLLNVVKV
As to L22F, the “effect of a mutation on the interaction” value is listed as “with no effect”. Same read-out and setting: the result for S33F reads “with no effect”; that for G79R, “disrupting interaction strength”.

In a further assay the parent is B2. Particulars: with zn496_human ZNF496, Q96IT1.
zn496_human ZNF496, Q96IT1, sequence (Q96IT1 whole entry): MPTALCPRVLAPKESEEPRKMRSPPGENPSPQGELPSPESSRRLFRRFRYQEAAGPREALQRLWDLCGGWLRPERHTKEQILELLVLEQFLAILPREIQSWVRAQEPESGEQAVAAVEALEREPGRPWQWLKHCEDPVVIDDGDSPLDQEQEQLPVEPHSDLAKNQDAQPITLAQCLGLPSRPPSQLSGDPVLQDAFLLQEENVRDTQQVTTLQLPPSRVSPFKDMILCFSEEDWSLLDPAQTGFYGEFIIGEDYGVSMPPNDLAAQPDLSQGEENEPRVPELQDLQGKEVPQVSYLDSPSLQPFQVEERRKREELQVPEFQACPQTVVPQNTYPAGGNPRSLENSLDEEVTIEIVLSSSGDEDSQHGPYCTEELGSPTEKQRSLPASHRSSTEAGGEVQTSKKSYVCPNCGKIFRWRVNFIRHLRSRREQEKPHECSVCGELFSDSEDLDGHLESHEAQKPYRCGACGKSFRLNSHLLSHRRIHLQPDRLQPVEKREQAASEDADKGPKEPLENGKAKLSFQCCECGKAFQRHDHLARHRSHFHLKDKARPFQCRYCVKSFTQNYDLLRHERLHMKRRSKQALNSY
In the case of L22F, the “effect of a mutation on the interaction” value is on record as “with no effect”. As to S33F, the “effect of a mutation on the interaction” value was “with no effect”. Turning to G79R, the “effect of a mutation on the interaction” value is given as “with no effect”.

In another assay the parent is B3. Particulars: with mr1l1_human MRFAP1L1, Q96HT8.
mr1l1_human MRFAP1L1, Q96HT8, sequence (Q96HT8 whole entry): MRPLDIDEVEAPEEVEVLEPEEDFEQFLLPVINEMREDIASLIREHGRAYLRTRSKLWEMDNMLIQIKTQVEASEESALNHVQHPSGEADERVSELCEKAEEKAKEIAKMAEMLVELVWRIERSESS
Turning to E110K, the “effect of a mutation on the interaction” value is given as “with no effect”. On to V60M, for which the “effect of a mutation on the interaction” value was “with no effect”. Consider M203I, for which the “effect of a mutation on the interaction” value is “with no effect”. Same read-out and setting: the result for N142D reads “with no effect”.

In another assay the parent is B4. The note with it: with dhb14_human HSD17B14, Q9BPX1.
dhb14_human HSD17B14, Q9BPX1, sequence (Q9BPX1 whole entry): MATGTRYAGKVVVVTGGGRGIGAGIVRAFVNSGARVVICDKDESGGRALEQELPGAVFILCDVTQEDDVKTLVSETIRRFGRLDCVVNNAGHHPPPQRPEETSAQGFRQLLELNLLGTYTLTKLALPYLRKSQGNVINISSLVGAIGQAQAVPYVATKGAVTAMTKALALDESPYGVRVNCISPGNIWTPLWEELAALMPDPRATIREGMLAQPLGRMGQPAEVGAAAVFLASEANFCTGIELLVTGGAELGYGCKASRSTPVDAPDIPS
As to S14L, the “effect of a mutation on the interaction” value was “with no effect”.

Variants of B4 are the subject of the next assay. The note with it: with tri23_human TRIM23, P36406.
tri23_human TRIM23, P36406, sequence (P36406 whole entry): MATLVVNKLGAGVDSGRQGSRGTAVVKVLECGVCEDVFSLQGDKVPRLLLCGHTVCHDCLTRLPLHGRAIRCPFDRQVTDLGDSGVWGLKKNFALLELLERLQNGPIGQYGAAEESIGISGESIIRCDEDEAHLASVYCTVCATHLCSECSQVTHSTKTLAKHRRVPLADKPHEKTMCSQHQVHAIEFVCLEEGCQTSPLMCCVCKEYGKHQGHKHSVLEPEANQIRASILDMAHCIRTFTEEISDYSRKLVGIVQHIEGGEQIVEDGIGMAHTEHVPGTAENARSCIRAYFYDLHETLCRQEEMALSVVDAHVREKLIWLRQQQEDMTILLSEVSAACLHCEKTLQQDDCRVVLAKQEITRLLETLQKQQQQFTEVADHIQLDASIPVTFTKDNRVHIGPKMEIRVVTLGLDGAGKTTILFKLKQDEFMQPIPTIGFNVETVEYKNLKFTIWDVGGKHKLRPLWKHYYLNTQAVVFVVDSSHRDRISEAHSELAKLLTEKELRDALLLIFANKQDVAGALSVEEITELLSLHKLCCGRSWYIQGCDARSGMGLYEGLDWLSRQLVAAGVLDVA
In the case of S14L, the “effect of a mutation on the interaction” value is “with no effect”.

In another assay the parent is B4. The note with it: with pdli7_human PDLIM7, Q9NR12.
pdli7_human PDLIM7, Q9NR12, sequence (Q9NR12 whole entry): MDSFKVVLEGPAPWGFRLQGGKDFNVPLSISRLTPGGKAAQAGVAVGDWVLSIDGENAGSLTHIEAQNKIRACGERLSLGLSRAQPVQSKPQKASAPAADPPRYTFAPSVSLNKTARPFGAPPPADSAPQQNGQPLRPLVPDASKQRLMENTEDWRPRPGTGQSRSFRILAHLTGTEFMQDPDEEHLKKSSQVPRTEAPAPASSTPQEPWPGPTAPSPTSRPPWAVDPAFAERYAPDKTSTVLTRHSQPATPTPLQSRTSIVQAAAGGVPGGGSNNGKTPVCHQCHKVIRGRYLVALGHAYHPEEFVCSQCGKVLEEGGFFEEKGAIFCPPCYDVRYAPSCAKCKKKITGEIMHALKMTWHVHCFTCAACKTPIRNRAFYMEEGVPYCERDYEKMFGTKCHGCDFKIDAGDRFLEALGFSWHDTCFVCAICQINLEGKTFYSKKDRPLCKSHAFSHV
Take S14L: the “effect of a mutation on the interaction” value is listed as “with no effect”.

In another assay the parent is B5. Particulars: with kr103_human KRTAP10-3, P60369.
Consider G267R, for which the “effect of a mutation on the interaction” value is given as “with no effect”.

With N576S, the “effect of a mutation on the interaction” value is given as “with no effect”.

On to L155F, for which the “effect of a mutation on the interaction” value is reported as “with no effect”.
